The Immune Epitope Database (IEDB)

Each sequence was assayed against HLA-A*02:01 (assay: IEDB peptide-MHC binding, purified MHC/direct/fluorescence; filed as Kd, often an IC50 or EC50 that approximates it; ≥ and ≤ were set here for values at or beyond the usual limits of such assays). Conditions: source organism: Human immunodeficiency virus 1.

| Sequence | Kd [nM] |
| --- | --- |
| KSLFNTIATL | 5 |
| KSLFNTIATLY | 5 |
| KSLFNTIAVL | 5 |
| KSLFNTIAVLY | 5 |
| KSLFNTVATL | 5 |
| KSLFNTVATLY | 5 |
| KSLFNTVAVL | 5 |
| KSLYNTIATL | 5 |
| KSLYNTIATLY | 20 |
| KSLYNTIAVL | 5 |
| KSLYNTVATL | 10 |
| KSLYNTVATLY | 5 |
| KSLYNTVAVL | 5 |
| KSLYNTVAVLY | 5 |
| RSLFNTIATLY | 5 |
| RSLFNTIAVL | 5 |
| RSLFNTIAVLY | 5 |
| RSLFNTVATL | 5 |

| Sequence | Kd [nM] |
| --- | --- |
| RSLFNTVAVL | 10 |
| RSLFNTVAVLY | 5 |
| RSLYNTIATL | 10 |
| RSLYNTIATLY | 40 |
| RSLYNTIAVL | 5 |
| RSLYNTIAVLY | 5 |
| RSLYNTVATL | 10 |
| RSLYNTVATLY | 10 |
| RSLYNTVAVL | 5 |
| RSLYNTVAVLY | 10 |
| SLFNTIATLY | 5 |
| SLFNTIAVLY | 5 |
| SLFNTVATLY | 5 |
| SLFNTVAVLY | 5 |
| SLYNTIATLY | 5 |
| SLYNTIAVLY | 5 |
| SLYNTVAVLY | 5 |
